This data set concerns fibrin (formed in the agarose plate from fibrinogen and thrombin).

For the substance “recombinant Desmodus rotundus salivary plasminogen activator alpha2 (DSPAα2) from transgenic T1 tobacco seeds, with C-terminal 6xHis tag and KDEL”, the fibrin degradation entry is “recombinant proteins t-PA, DSPAα1 and DSPAα2 produced in this manner can degrade fibrin”.

The values above are taken from patent US20160208274.
